In assay [1] the target is soluble IGFR1 (sIGFR1), NSO-expressed recombinant protein encompassing the alpha-subunit and the extracellular domain of the beta-subunit of IGFR1 (human) (UniProt P08069). Briefly: SPR (Biacore 3000), IGFR1 on CM-5 chip, 25° C. In general terms: SPR reads the build-up and loss of mass on a sensor chip optically.
Assay [2] shares this target. Description: SPR (Biacore 3000), IGFR1 on CM-5 chip, 37° C.
Assay [3] has the same target. Description: SPR (Biacore 3000), IGFR1 on CM-5 chip, 25° C.; 25° C.
Assay [4] shares this target. Description: SPR (Biacore 3000), IGFR1 on CM-5 chip, 25° C.; calculated from koff.
Assay [5] shares this target. Description: SPR (Biacore 3000), IGFR1 on CM-5 chip, 37° C.; calculated from koff.
For assay [6] the target is unchanged. Description: isotype ELISA on coated soluble IGFR1, detected with HRP-anti-hu kappa. (ELISA stands for enzyme-linked immunosorbent assay.)
The target is the same in assay [7]. Description: isotype ELISA on coated soluble IGFR1, detected with HRP-anti-hu-gamma.
For assay [8] the target is unchanged. Description: isotype ELISA on coated soluble IGFR1, detected with HRP-anti-human IgG3.

B1: 15H12 fully human monoclonal anti-IGFR1 antibody (antibody, IgG3, V domains shown)
VH: EVQLVQSGGGLVHPGGSLRLSCAASGFTFSSFAMHWVRQAPGKGLEWISVIDTRGATYYADSVKGRFTISRDNAKNSLYLQMNSLRAEDMAVYYCARLGNFYYGMDVWGQGTTVTVSS
VL: EIVLTQVPDFQSVTPKEKVTITCRASQSIGSSLHWYQQKPDQSPKLLIKYASQSLSGVPSRFSGSGSGTDFTLTINSLEAEDAAAYYCHQSSRLPHTFGGGTKVEIKR
On to B1, for which the koff in assay [1] was 2.24e-05 s⁻¹; in assay [2] it was 4.01e-05 s⁻¹. The figures for the kon in assay [2] and in assay [3] were 720000 M⁻¹ s⁻¹ and 500000 M⁻¹ s⁻¹, respectively. In addition, the Half-life in assay [4] was 8.6 h; in assay [5], 4.8 h. Also, the ELISA signal (OD415 nm-490 nm) in assay [6] was found to be 1 OD; in assay [7], 1.9 OD; in assay [8], 0.813 OD.

B2: 19D12 fully human monoclonal anti-IGFR1 antibody (antibody, V domains shown)
VH: B1 VH
VL: B1 VL
On to B2, for which the koff in assay [1] was 2.65e-05 s⁻¹; in assay [2] it was 4.93e-05 s⁻¹. In addition, the results for the kon in assay [1] and in assay [2] were 400000 M⁻¹ s⁻¹ and 680000 M⁻¹ s⁻¹, respectively. Besides, the figures for the Half-life in assay [4] and in assay [5] were 7.27 h and 3.91 h, respectively.

For orientation: koff means the rate constant with which the complex falls apart. A word on the kon: it is a measure of how fast the partners come together.
